Here are results for one molecule from patent publication US20230183349A1.

The test concerns the target PD1 aglycosylated at Asn58 (human) (UniProt Q15116). The test is described as follows: SPR Biacore T200, antibody captured by anti-human IgG, PD1-ECD as analyte, 25 °C, 1:1 Langmuir. In general terms: In SPR one partner is held on a chip, and binding of the other changes the refractive index at the surface.

B1: PD1-0103-0312 (antibody, V domains shown)
VH: EVQLLESGGGLVQPGGSLRLSCAASGFSFSSYTMSWVRQAPGKGLEWVATISGGGRDIYYPDSVKGRFTISRDNSKNTLYLQMNSLRAEDTAVYYCVLLTGRVYFALDSWGQGTLVTVSS
VL: DIVMTQSPDSLAVSLGERATINCKASESVDTSDNSFIHWYQQKPGQSPKLLIYRSSTLESGVPDRFSGSGSGTDFTLTISSLQAEDVAVYYCQQNYDVPWTFGQGTKVEIK
Take B1: the dissociation constant (Kd) – broadly, the equilibrium constant for the complex coming apart – was determined as 80.2 nM; the koff (usually the first-order rate constant of dissociation) was 0.027 s⁻¹; the kon – broadly, a measure of how fast the partners come together – was found to be 336000 M⁻¹ s⁻¹.
